Where two headings read alike, the source gives them in different places. Blank lines part the entries; values can stand above or below the binder they belong to.
Tests used:
[1] = biological target: T1, human CD40-Fc protein (amino acid residue 21-193 of SEQ ID NO: 67 linked to N-terminus of amino acid residue … (human, biotin-labeled in the capture ELISA and in the benchmark blocking ELISA; unlabeled when coated in the ligand blocking ELISA); test: ligand blocking ELISA: human CD40-Fc coated, antibody titrated, then biotin-labeled human CD40L-his (blocked ligand), streptavidin-HRP, OD(450-630)
T1 construct: also called biotin-labeled human CD40-Fc; human CD40-Fc-biotin
Protocol: Serially diluted the mouse anti-CD40 antibodies of the present invention or the controls (starting at 200 nM with a four-fold serial dilution) in 2.5% w/v non-fatty milk in PBST were prepared to the plates and incubated with the human CD40-Fc proteins at room temperature for 40 minutes. […] Plates were washed again. 100 μl/well of streptavidin conjugated HRP was added and incubated for 40 minutes at 37° C. Plates were washed again using wash buffer. Finally, TMB was added and the reaction was stopped using 1M H₂SO₄, and the absorbance was read at 450 nm. Data were analyzed using Graphpad Prism software and IC₅₀ values were reported.

[2] = biological target: T1, human CD40-Fc protein (amino acid …); test: capture ELISA, biotin human CD40-Fc; mAb at 2000 ng/mL
Protocol: (§1) Plates were washed 4 times with wash buffer (PBS+0.05% Tween-20, PBST) and then blocked with 200 μl/well blocking buffer (5% w/v non-fatty milk in PBST) for 2 hours at 37° C. […] After a final wash, plates were incubated with 100 μl/well ELISA substrate TMB (Innoreagents, Cat # TMB-S-002). The reaction was stopped in 15 minutes at 25° C. with 50 μl/well 1M H₂SO₄, and the absorbance was read at 450 nm and plotted against antibody concentration. Data were analyzed using Graphpad Prism software and EC₅₀ values were reported.

[3] = biological target: T1, human CD40-Fc protein (amino acid …); test: competitive ELISA; biotin human CD40-Fc in solution, competitor coated BM2
Protocol: (§2) The ability of the mouse anti-CD40 antibodies of the present invention to block the binding of the Benchmark to human CD40 was measured using a competitive ELISA assay. […] The next day, plates were washed with wash buffer, and blocked with 5% w/v non-fatty milk in PBST for 2 hours at 37° C. Plates were then washed again using wash buffer. […] After incubation at 37° C. for 40 minutes, plates were washed 4 times using wash buffer. Then streptavidin conjugated HRP was added and incubated for 40 minutes at 37° C. to detect biotin-labeled human CD40-Fc bound to plates. Plates were washed again using wash buffer. Finally, TMB was added and the reaction was stopped using 1M H₂SO₄, and the absorbance was read at 450 nm. Data were analyzed using Graphpad Prism software and IC₅₀ values were reported.
In the capture ELISA test, a mouse control antibody targeting a protein other than CD40 was used.

[4] = biological target: T2, full length human CD40 (uniprot # P25942-1) on the membrane of 293T-CD40 cells (human, UniProt P25942 21-277); test: flow cytometry on 293T-CD40 cells
T2 construct: also called cell surface CD40
Protocol: 2×10⁵ cells per well in 96 well-plates were incubated with the mouse anti-CD40 antibodies or the controls of various concentrations in FACS buffer for 40 minutes on ice. […] Following an incubation of 40 minutes at 4° C. in dark, cells were washed three times and resuspended in FACS buffer. Fluorescence was measured using a Becton Dickinson FACS Canto II-HTS equipment and plotted against antibody concentration.

[5] = biological target: T1, human CD40-Fc protein (amino acid …); test: competitive ELISA; biotin human CD40-Fc in solution, competitor coated BM2; remark: listed apart in the source
Protocol: as §2

[6] = biological target: T3, Human CD40-his protein (Acro biosystems, Cat # CD0-H5228) (human, UniProt P25942 21-193); test: SPR, Biacore; human CD40-his
T3 construct: Bought reagent; not shown: his tag
Text: Briefly, goat anti-mouse IgG (GE healthcare, Cat # BR100838, Mouse Antibody Capture Kit) was covalently linked to a CM5 or a Protein G chip (carboxy methyl dextran coated chip) via primary amines, using a standard amine coupling kit provided by Biacore (GE healthcare, Pittsburgh, Pa., USA). Un-reacted moieties on the biosensor surface were blocked with ethanolamine. […] Then, human CD40-his (Acro biosystems, Cat # CD0-H5228) or cynomolgus monkey CD40-his protein (Acro biosystems, Cat # CD0-052H6) in HBS EP buffer (provided by Biacore) was flowed onto the chip at a flow rate of 30 μL/min. The antigen-antibody association kinetics was followed for 2 minutes and the dissociation kinetics was followed for 10 minutes. The association and dissociation curves were fit to a 1:1 Langmuir binding model using BIA evaluation software.

[7] = biological target: T1, human CD40-Fc protein (amino acid …); test: capture ELISA, biotin human CD40-Fc; mAb at 80 ng/mL
Protocol: as §1

[8] = biological target: T1, human CD40-Fc protein (amino acid …); test: benchmark blocking ELISA: BM2 (Selicrelumab) coated as competitor, antibody titrated in biotin-labeled human CD40-Fc solution, streptavidin-HRP, OD(450-630)
Protocol: as §2

[9] = biological target: T1, human CD40-Fc protein (amino acid …); test: capture ELISA, biotin human CD40-Fc; mAb at 0.64 ng/mL
Protocol: as §1

[10] = biological target: T1, human CD40-Fc protein (amino acid …); test: capture ELISA, biotin human CD40-Fc; mAb at 16 ng/mL
Protocol: as §1

- IC50 (read off the curve) [1]: ~0.8 µg/mL
- absorbance at 450 nm [2]: 1.75 OD450
- IC50 [3]: 461 pM
- EC50 [4]: 1860 pM
- IC50 [5]: 461 pM
- Kd [6]: 3620 pM
- absorbance at 450 nm [7]: 1.48 OD450
- IC50 (read off the curve) [8]: ~500 pM
- absorbance at 450 nm [9]: 0.142 OD450
- absorbance at 450 nm [10]: 0.764 OD450
B1: mouse anti-CD40 monoclonal antibody C1C1 (antibody, V domains shown)
VH: EVKLVESGGGLVKPGASLKLSCAASGFTFSNYGMSWVRQNSDKRLEWVASISSGGDDTYYPDNVKGRCTISRENAKNTLYLEMSSLKTEDTALYYCTRAGGKAMDYWGQGTSVTVST
VL: DIVLTQSPATLSVIPGNSVSLSCRASQSIRDNLHWYQQKSHESPRLLINYASQSISGIPSRFSGSGSGTDFTLTINSVETEDFGIYFCQQFNSWPLTFGGGTKLELK
notes: those are used here for the chimeric antibody only; also called Mouse C1C1; mouse C1C1

- IC50 (read off the curve) [1]: ~0.8 µg/mL
- absorbance at 450 nm [2]: 1.83 OD450
- IC50 [3]: 130 pM
- EC50 [4]: 1820 pM
- IC50 [5]: 126 pM
- Kd [6]: 5980 pM
- absorbance at 450 nm [7]: 1.17 OD450
- IC50 (read off the curve) [8]: ~0.02 µg/mL
- absorbance at 450 nm [9]: 0.035 OD450
- absorbance at 450 nm [10]: 0.329 OD450
B2: chimeric antibody C1C1 (antibody, human IgG1, kappa, V domains shown)
VH: B1 VH
VL: DIVLTQSPATLSVIPGNSVSLSCRASQSIRDNLHWYQQKSHESPRLLINYASQSISGIPSRFSGSGSGTDFTLTINSVETEDFGIYFCQQFNSWPLTFGGGTKLELKR
notes: also called chC1C1; chimeric C1C1

From patent US20200332017A1 (SALUBRIS CHENGDU BIOTECH, published 2020)
